Reference: the supplement of paper PMC10567573

B1: OR10K2 (parent)
chain: SLARLQQLLFVIFLLLYLFTLGTN
B2: ANKRD40 (parent)
chain: SLRENDFIEIELDRQELTYQELLR

Variants of: B1
Assay: protein stability index of a GFP-peptide fusion (GPS, HEK-293T) (PSI 1-6); higher = more stable
Conditions: c terminus: a fixed tail appended
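Note: lentivirally expressed fusions sorted by FACS into six bins by GFP to DsRed ratio, PSI derived from sequencing read proportions per bin multiplied by bin number.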

| Variant | protein stability index |
| --- | --- |
| SLARLQQLLFVIHLLLYLFTLGTN [F13H] | 2.96 |
| SLARLQQLLFVIWLLLYLFTLGTN [F13W] | 3.36 |
| SLHRLQQLLFVIFLLLYLFTLGTN [A3H] | 3.07 |
| SLRRLQQLLFVIFLLLYLFTLGTN [A3R] | 1.76 |
| SLERLQQLLFVIFLLLYLFTLGTN [A3E] | 1.91 |
| SLARLQQRLFVIFLLLYLFTLGTN [L8R] | 3.34 |
| SLARLQQILFVIFLLLYLFTLGTN [L8I] | 2.4 |
| SLARLQQGLFVIFLLLYLFTLGTN [L8G] | 2.92 |
| SLAYLQQLLFVIFLLLYLFTLGTN [R4Y] | 2.57 |
| SLARLLQLLFVIFLLLYLFTLGTN [Q6L] | 2.97 |
| SLARLSQLLFVIFLLLYLFTLGTN [Q6S] | 2.43 |
| SLARLDQLLFVIFLLLYLFTLGTN [Q6D] | 3.29 |
| SLARLYQLLFVIFLLLYLFTLGTN [Q6Y] | 2.6 |
| SLARLQQLLFVIFGLLYLFTLGTN [L14G] | 2.6 |
| SLARLQQLLFPIFLLLYLFTLGTN [V11P] | 2.94 |
| SLARLQQLLFYIFLLLYLFTLGTN [V11Y] | 2.3 |
| SLARLQQLLFAIFLLLYLFTLGTN [V11A] | 1.59 |
| SLARLQQLLFSIFLLLYLFTLGTN [V11S] | 1.85 |

| Variant | protein stability index |
| --- | --- |
| SLARLQQLLFVIFLLLYLFTLGSN [T23S] | 1.86 |
| SLARFQQLLFVIFLLLYLFTLGTN [L5F] | 2.59 |
| SLARPQQLLFVIFLLLYLFTLGTN [L5P] | 2.02 |
| SGARLQQLLFVIFLLLYLFTLGTN [L2G] | 1.4 |
| SRARLQQLLFVIFLLLYLFTLGTN [L2R] | 2.48 |
| SNARLQQLLFVIFLLLYLFTLGTN [L2N] | 3.77 |
| SQARLQQLLFVIFLLLYLFTLGTN [L2Q] | 2.62 |
| SLARLQQLLFVIFLLLYLMTLGTN [F19M] | 2.17 |
| SLARLQQLLFVEFLLLYLFTLGTN [I12E] | 1.78 |
| SLARLQQLLFVKFLLLYLFTLGTN [I12K] | 3.69 |
| SLARLQQLLFVIFLLLYLFTLGTI [N24I] | 2.75 |
| SLARLQVLLFVIFLLLYLFTLGTN [Q7V] | 2.1 |
| SLARLQHLLFVIFLLLYLFTLGTN [Q7H] | 1.9 |
| SLARLQKLLFVIFLLLYLFTLGTN [Q7K] | 3.27 |
| SLARLQCLLFVIFLLLYLFTLGTN [Q7C] | 2.1 |
| SLARLQQLLFVIFLLLWLFTLGTN [Y17W] | 2.13 |
| FLARLQQLLFVIFLLLYLFTLGTN [S1F] | 1.35 |

Variants of: B2
Assay: as above
Conditions: c terminus: a fixed tail appended

| Variant | protein stability index |
| --- | --- |
| SLRENDFIEIELDRQELSYQELLR [T18S] | 3.55 |
| SLRENDFIEIEWDRQELTYQELLR [L12W] | 2.8 |
| SLRENDFIEIESDRQELTYQELLR [L12S] | 4.18 |
| SLRENDFIEIERDRQELTYQELLR [L12R] | 4.14 |
| SLRENDFIEIENDRQELTYQELLR [L12N] | 4.17 |
| SLRENDFIEIEDDRQELTYQELLR [L12D] | 4.51 |
| SLRENDFIEIEPDRQELTYQELLR [L12P] | 3.72 |
| SLRENDFIEIEIDRQELTYQELLR [L12I] | 2.69 |
| SLRENDFIEIEEDRQELTYQELLR [L12E] | 4.41 |
| SLRENDFIEIETDRQELTYQELLR [L12T] | 3.88 |
| SLRENDFIEIEADRQELTYQELLR [L12A] | 3.92 |
| SLRENDFIEIEMDRQELTYQELLR [L12M] | 2.67 |
| SLRENDFIEIEVDRQELTYQELLR [L12V] | 3.54 |
| SLRENDFIEIEHDRQELTYQELLR [L12H] | 3.82 |
| SLRENDFIEIEQDRQELTYQELLR [L12Q] | 4.13 |
| SLRENDFIEIELDRQRLTYQELLR [E16R] | 3.04 |
| SLRENDFIEIELDRQVLTYQELLR [E16V] | 2.48 |
| SLRENDFIEIELDRQMLTYQELLR [E16M] | 2.6 |
| SLRENDFIEIELDRQPLTYQELLR [E16P] | 3.42 |
| SLRENDFIEIELDRQGLTYQELLR [E16G] | 2.91 |

| Variant | protein stability index |
| --- | --- |
| SLRENDFIEIELDRQCLTYQELLR [E16C] | 2.46 |
| SLRENDFIEIELDRQALTYQELLR [E16A] | 2.8 |
| SLRENDFIEIELDRQDLTYQELLR [E16D] | 3.24 |
| SLRENDFIEIELDRQELTYQELDR [L23D] | 4.25 |
| SLRENDFIEIELDRQELTYQELER [L23E] | 3.99 |
| SLRENDFIEIELDRQELTYQELFR [L23F] | 2.54 |
| SLRENNFIEIELDRQELTYQELLR [D6N] | 2.99 |
| SLRENCFIEIELDRQELTYQELLR [D6C] | 2.28 |
| SLRENFFIEIELDRQELTYQELLR [D6F] | 2.12 |
| SLRENHFIEIELDRQELTYQELLR [D6H] | 2.57 |
| SLRENIFIEIELDRQELTYQELLR [D6I] | 1.28 |
| SLRENDFIEIELDRQELTYQELLL [R24L] | 3.09 |
| SLRENDFIEIELDRQELTYQELLI [R24I] | 2.35 |
| SLRENDFIEIELDRQELTYQELLP [R24P] | 3.06 |
| SLRENDFIEIELDRQELTYQELLG [R24G] | 3.27 |
| SLRENDFIEIELDRQELTYQELLA [R24A] | 3.23 |
| SLRENDFIEIELDRQELTYQELLV [R24V] | 2.71 |
| SLRENDFIEIELDRQELTYQELLD [R24D] | 3.17 |
| SLRENDFIEIELDRQELTYQELLF [R24F] | 2.64 |
| SLRENDFIEIELDRQELTYQELLS [R24S] | 2.92 |

| Variant | protein stability index |
| --- | --- |
| SLRENDFIEIELERQELTYQELLR [D13E] | 2.82 |
| SLRENDFIEIELPRQELTYQELLR [D13P] | 2.77 |
| SLRENDFIEIELCRQELTYQELLR [D13C] | 2.35 |
| SLRFNDFIEIELDRQELTYQELLR [E4F] | 2.41 |
| SLRCNDFIEIELDRQELTYQELLR [E4C] | 2.16 |
| SLRWNDFIEIELDRQELTYQELLR [E4W] | 2.19 |
| SLRMNDFIEIELDRQELTYQELLR [E4M] | 2.55 |
| SLRSNDFIEIELDRQELTYQELLR [E4S] | 3.21 |
| PLRENDFIEIELDRQELTYQELLR [S1P] | 3.26 |
| ILRENDFIEIELDRQELTYQELLR [S1I] | 2.34 |
| RLRENDFIEIELDRQELTYQELLR [S1R] | 3.07 |
| NLRENDFIEIELDRQELTYQELLR [S1N] | 3.31 |
| DLRENDFIEIELDRQELTYQELLR [S1D] | 3.12 |
| YLRENDFIEIELDRQELTYQELLR [S1Y] | 2.3 |
| SLRENDFIEIELDRQELTYEELLR [Q20E] | 3.58 |
| SLRENDFIEIELDRQELTYVELLR [Q20V] | 2.62 |
| SLRENDFIEIELDRQELTYYELLR [Q20Y] | 2.29 |
| SLRENDFIEIELDRQELTYTELLR [Q20T] | 2.97 |
| SLRENDFIEIELDRQELTYIELLR [Q20I] | 1.83 |
